Data as given in US7491523B2, “Voltage-dependent calcium channel beta subunit functional core” (priority 2004, dated 2009).
fluorescein = fluorescein label

Assays:
β = settings: AID with β; cited from earlier work
Cav1.2 (α1C) = molecular target: T1, Cav1.2 (α1C) (Homo sapiens, UniProt Q13936); assay: Two-electrode voltage clamp of Xenopus oocytes expressing Cav1.2, microinjected with β proteins; format: cell-based, Xenopus laevis; settings: for current amplitude increase and change of steady-state activation: Cav1.2 currents, protein injection into oocytes; for Current amplitude, I at 20 mV / Current amplitude, I at 30 mV: Xenopus oocytes, α1.2, mean ± SEM; for Steady-state activation, V1/2 (membrane potential for half-maximal activation) / Steady-state activation, k (slope factor): from I-V curve, mean ± SEM
T1 construct: expressed in transfected cells; host or cells: Xenopus laevis oocytes, mRNA injection
Protocol: Preparation of Xenopus laevis oocytes, injection of mRNA of VDCC subunits, and electrophysiological recording and analysis were performed, as described (Kang, M. G., Chen, C. C., Felix, R., Letts, V. A., Frankel, W. N., Mori, Y., and Campbell, K. P. (2001) J Biol Chem 276, 32917-32924). The negative control group were oocytes expressing CaV1.2 (α1C) subunit only by mRNA injection followed by injection of protein buffer (PB). The positive control group were oocytes expressing α1C and β3 subunits by mRNA injection, followed by injection of protein buffer (PB). The oocytes of experimental groups were injected with α1C mRNA followed by injection of VDCC β proteins, two days after the mRNA injection. Injection of protein ([…] of protein per oocyte) was performed similarly as mRNA injection. Oocytes injected with VDCC β proteins were incubated one more day and the expressed calcium channel currents were recorded using the two-electrode voltage-clamp technique.
In order to determine that the bacterially expressed, recombinant proteins were physiologically active, two-electrode, two-voltage-clamp measurements of Xenopus oocytes expressing α1 and microinjected with our protein samples was performed. […] The current amplitude increase and change of steady-state activation are statistically significant in all experimental groups except a group injected with β2a domain I protein.

[1] = molecular target: T2, fluorescein-labeled AID peptide (AID motif of the CaV1.1 I-II linker) (Oryctolagus cuniculus, UniProt P07293, M367N); assay: AID peptide binding assay (fluorescence polarization): VDCC β constructs titrated against labeled AID peptide; settings: identical protein amounts, after incubation with TEV protease, FIG. 6c
T2 construct: fluorescein label (chemical, on the amino-terminus); made in house; host or cells: synthetic peptide, HPLC-purified
From the text: Fluorescence polarization was used to determine the equilibrium dissociation constant (KD) for the interaction between a fluorescein-labeled AID peptide, purified and various VDCC β constructs. The synthetic peptide was purified by HPLC reverse chromatography using a C18 column (Vydac) with a shallow acetonitrile gradient 20-80% (both solvents were supplemented with 0.05% trifluoracetic acid). Its sequence is derived from the AID motif of: the CaV1.1 I-II linker and is as follows: fluorescein-[…]-COOH (SEQ ID NO: 14). A mutant peptide, fluorescein-[…]-COOH (SEQ ID NO: 15) was prepared, in addition. […] Polarization measurements were taken with an ISS K2 fluorescence spectrophotometer at excitation and emission wavelengths of 492 and 520 nm, respectively, at 20° C., maintained by a temperature-controlled water bath. […] Binding isotherms for the various samples were measured three independent times. Binding data were analyzed in SigmaPlot (SPSS) by nonlinear regression used to fit a binding function as defined by the following equation: […]
where X is the concentration of free ligand, ΔP is the change in fluorescence polarization of the fluorophore (baseline polarization of the labeled peptide alone was subtracted), Bmax is the maximum change in polarization upon saturation and KD is the concentration of ligand required to reach half maximal binding. […]

β2a protein [2] = molecular target: T3, β2a protein (Oryctolagus cuniculus, UniProt P54288, P148R); settings: single amino acid change Y to S; cited from earlier work
T3 construct: Equilibrium isotherm titrations were performed with full-length β2a and linkerless core β2a; 8xHis tag followed by a TEV protease site (N, cleaved yes); made in house; host or cells: E. coli BL-21 Tuner with RIL Codon Plus plasmid, modified pET21 vector

β2a protein [3] = molecular target: T4, β2a protein (Oryctolagus cuniculus, UniProt P54288); assay: AID peptide binding assay (fluorescence polarization): AID peptide variants against β2a; parameters: species or system rabbit; settings: up to 350 nM β2a protein
T4 construct: Equilibrium isotherm titrations were performed with full-length β2a and linkerless core β2a; 8xHis tag followed by a TEV protease site (N, cleaved yes); made in house; host or cells: E. coli BL-21 Tuner with RIL Codon Plus plasmid, modified pET21 vector
From the text: Fluorescence polarization was used to determine the equilibrium dissociation constant (KD) for the interaction between a fluorescein-labeled AID peptide, purified and various VDCC β constructs. The synthetic peptide was purified by HPLC reverse chromatography using a C18 column (Vydac) with a shallow acetonitrile gradient 20-80% (both solvents were supplemented with 0.05% trifluoracetic acid). Its sequence is derived from the AID motif of: the CaV1.1 I-II linker and is as follows: fluorescein-[…]-COOH (SEQ ID NO: 14). A mutant peptide, fluorescein-[…]-COOH (SEQ ID NO: 15) was prepared, in addition. Increasing concentrations of protein were incubated with 0.5 nM labeled peptide for 10 min in the dark at room temperature. Polarization measurements were taken with an ISS K2 fluorescence spectrophotometer at excitation and emission wavelengths of 492 and 520 nm, respectively, at 20° C., maintained by a temperature-controlled water bath. Polarization measurements were made with integration times on the order of 20 seconds, achieving a standard deviation of 5 percent of signal. Binding isotherms for the various samples were measured three independent times. Binding data were analyzed in SigmaPlot (SPSS) by nonlinear regression used to fit a binding function as defined by the following equation: […]

T1 sequence (Q13936 whole entry, species assumed): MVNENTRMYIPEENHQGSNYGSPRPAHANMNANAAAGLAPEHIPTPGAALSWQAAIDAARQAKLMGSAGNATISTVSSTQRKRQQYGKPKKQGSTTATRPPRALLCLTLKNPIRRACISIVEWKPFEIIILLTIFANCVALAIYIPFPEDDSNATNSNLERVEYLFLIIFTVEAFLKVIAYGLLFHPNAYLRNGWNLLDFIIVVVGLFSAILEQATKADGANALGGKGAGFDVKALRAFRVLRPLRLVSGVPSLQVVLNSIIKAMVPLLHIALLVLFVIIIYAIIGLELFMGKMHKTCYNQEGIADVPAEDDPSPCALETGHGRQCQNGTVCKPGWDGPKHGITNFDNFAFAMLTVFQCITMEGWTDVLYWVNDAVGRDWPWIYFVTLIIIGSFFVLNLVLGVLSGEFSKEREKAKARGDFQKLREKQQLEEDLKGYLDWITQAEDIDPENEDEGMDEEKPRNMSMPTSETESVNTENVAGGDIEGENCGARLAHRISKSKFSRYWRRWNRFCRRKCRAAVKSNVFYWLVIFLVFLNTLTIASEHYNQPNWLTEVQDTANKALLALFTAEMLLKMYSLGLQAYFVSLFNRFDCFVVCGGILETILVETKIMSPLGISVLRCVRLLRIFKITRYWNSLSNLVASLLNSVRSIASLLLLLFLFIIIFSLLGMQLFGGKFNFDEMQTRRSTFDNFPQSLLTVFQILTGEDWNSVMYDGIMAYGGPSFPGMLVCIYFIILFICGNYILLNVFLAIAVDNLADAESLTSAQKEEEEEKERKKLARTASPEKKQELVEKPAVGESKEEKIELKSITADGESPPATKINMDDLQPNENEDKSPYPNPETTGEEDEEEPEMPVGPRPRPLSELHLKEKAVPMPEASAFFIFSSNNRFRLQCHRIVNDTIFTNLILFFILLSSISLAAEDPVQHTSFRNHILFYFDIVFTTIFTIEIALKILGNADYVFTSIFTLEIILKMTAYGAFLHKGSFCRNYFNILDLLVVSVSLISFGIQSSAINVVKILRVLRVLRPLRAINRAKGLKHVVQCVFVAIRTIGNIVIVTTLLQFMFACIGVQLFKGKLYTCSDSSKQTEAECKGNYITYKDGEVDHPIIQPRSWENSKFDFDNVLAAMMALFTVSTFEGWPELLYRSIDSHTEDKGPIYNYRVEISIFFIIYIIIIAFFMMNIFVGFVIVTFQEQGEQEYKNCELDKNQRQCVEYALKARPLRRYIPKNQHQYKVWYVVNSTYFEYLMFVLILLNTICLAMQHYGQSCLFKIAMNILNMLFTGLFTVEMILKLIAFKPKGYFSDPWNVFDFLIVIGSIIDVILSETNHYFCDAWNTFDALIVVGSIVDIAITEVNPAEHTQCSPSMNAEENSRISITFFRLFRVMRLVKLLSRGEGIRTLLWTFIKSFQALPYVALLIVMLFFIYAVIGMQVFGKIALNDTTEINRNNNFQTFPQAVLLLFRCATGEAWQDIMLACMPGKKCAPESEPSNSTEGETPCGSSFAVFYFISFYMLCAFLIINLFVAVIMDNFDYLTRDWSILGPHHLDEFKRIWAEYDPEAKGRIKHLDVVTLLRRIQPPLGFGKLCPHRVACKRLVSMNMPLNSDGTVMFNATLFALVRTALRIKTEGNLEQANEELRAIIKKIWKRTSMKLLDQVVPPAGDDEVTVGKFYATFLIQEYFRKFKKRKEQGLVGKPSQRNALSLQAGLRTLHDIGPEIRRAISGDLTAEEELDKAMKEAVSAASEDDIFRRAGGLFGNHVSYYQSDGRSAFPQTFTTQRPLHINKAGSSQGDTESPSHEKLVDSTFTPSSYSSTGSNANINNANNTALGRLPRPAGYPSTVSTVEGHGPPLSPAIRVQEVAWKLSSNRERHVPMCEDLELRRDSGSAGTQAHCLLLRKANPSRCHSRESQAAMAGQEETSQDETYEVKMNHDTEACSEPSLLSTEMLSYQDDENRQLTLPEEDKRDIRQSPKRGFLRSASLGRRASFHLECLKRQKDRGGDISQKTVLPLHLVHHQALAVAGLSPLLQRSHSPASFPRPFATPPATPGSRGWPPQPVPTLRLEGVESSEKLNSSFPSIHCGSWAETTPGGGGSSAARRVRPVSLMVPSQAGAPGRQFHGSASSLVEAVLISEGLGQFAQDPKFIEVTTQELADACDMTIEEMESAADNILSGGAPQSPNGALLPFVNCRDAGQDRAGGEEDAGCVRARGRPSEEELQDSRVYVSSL
T2 sequence (P07293 with tags, fused parts or gaps M367N): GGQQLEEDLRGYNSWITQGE
T3 sequence (P54288 2-606 isoform P54288-2 P122R): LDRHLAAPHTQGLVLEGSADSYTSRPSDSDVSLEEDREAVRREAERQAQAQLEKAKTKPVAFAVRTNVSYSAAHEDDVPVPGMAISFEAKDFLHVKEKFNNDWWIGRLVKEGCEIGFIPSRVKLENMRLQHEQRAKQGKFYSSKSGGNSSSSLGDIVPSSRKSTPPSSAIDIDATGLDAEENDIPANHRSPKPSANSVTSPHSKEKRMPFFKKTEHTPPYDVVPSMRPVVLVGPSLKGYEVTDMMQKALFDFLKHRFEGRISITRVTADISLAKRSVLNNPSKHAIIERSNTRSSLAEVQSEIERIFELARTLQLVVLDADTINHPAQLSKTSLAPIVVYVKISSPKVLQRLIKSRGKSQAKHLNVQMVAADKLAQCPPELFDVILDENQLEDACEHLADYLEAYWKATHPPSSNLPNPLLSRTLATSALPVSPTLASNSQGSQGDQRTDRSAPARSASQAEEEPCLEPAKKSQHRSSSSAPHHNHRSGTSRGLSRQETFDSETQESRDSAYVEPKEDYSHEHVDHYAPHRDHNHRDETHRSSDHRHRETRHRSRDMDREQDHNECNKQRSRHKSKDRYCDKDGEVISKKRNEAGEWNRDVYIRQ
T4 sequence (P54288 2-606 isoform P54288-2 P122R): as above

Substance | koff (β) [s⁻¹] | current amplitude increase and change of steady-state activation (Cav1.2 (α1C)) | Current amplitude, I at 20 mV (Cav1.2 (α1C)) | Current amplitude, I at 30 mV (Cav1.2 (α1C)) [µA] | Steady-state activation, V1/2 (membrane potential for half-maximal activation) (Cav1.2 (α1C)) [mV] | Steady-state activation, k (slope factor) (Cav1.2 (α1C)) [mV] | relative binding to labeled AID peptide [1] | binding capability relative to WT (β2a protein [2]) | binding of AID peptide to β2a (β2a protein [3])
AID: α1 interaction domain sequence of the α1 I-II linker that binds β | ~0.005 |  |  |  |  |  |  |  | 
Core β2 Pro.: injected recombinant β2a core protein |  | corresponds well to full-length protein activity | −0.87 ± 0.09 A | -0.7 ± 0.07 | 6.84 ± 0.83 | 8.43 ± 0.23 |  |  | 
Core β3 Pro.: β3 core protein |  |  | -0.45 ± 0.04 µA | -0.41 ± 0.03 | 10.65 ± 4.46 | 10.06 ± 1.15 |  |  | 
Full β2 Pro.: injected recombinant full-length β2a protein, later found to contain mutation P122R |  |  | -0.71 ± 0.09 µA | -0.49 ± 0.06 | 3.68 ± 0.33 | 8.48 ± 0.53 |  |  | 
Full β3 Pro.: recombinant full-length rat VDCC β3 subunit protein |  |  | -0.47 ± 0.04 µA | -0.44 ± 0.03 | 10.03 ± 3.36 | 10.56 ± 0.42 |  |  | 
d1 + d2 β2 Pro.: domain I + domain II prepared by proteolysis of full length protein and subsequent purification |  | significant changes in the current amplitude and activation shift | -0.44 ± 0.04 µA | -0.34 ± 0.03 | 3.24 ± 0.93 | 9.49 ± 0.92 |  |  | 
domain II: β2a domain II released from NusA-domain II fusion by incubation with TEV protease |  |  |  |  |  |  | significant binding affinity for the AID |  | 
fluorescein-GGQQLEEDLRGSNSWITQGE-COOH (SEQ ID NO: 15) (fluorescein-GGQQLEEDLRGSNSWITQGE-OH; listed as Oryctolagus cuniculus) [mutant AID peptide, mutant AID peptide with single amino acid change Y to S] |  |  |  |  |  |  |  | less than five percent binding capability of WT | No binding
β2a domain I: recombinant β2a domain I, residues 25 to 146 |  |  | -0.16 ± 0.01 µA | -0.18 ± 0.02 | 24.00 ± 3.01 | 12.18 ± 0.49 | negligible |  | 
